The results in this text go back to US11491212.

For series [1], the target named is Factor X (FX), P00742.
Series [2] addresses Factor X, P00742.

Factor X, P00742, sequence (P00742 whole entry, looked up): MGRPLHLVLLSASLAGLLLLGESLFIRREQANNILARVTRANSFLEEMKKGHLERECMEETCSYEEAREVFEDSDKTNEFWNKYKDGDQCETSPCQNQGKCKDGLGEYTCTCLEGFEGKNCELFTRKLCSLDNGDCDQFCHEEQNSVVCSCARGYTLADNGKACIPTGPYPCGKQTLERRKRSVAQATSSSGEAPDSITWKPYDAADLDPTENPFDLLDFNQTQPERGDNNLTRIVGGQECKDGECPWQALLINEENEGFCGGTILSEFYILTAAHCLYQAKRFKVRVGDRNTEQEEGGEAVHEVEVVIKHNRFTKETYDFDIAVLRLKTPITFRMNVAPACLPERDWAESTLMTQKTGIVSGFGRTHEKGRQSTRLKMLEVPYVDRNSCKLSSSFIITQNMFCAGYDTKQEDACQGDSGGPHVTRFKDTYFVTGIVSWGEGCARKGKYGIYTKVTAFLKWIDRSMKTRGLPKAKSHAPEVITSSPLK
Factor X (FX), P00742, sequence (P00742 whole entry, looked up): as above

B1: FIXa-Y155F/K247N/N249S/R338E/T343R/R403E (protein)
chain 1: not shown
chain 2: not shown
B1: the kcat in series [1] came to 14.6 s⁻¹. Further, the KM in series [2] is 0.0251 µM.

B2: FIXa-K247N/N249S/R318Y/T343R/E410N (protein)
chain 1: not shown
chain 2: not shown
For B2, the kcat in series [1] came out at 6.1 s⁻¹. For the same protein, in series [2], the KM turned out to be 0.0401 µM.

B3: FIXa-Y155F/R318Y/R338E/T343R/E410N (protein)
chain 1: not shown
chain 2: not shown
Regarding B3, the KM in series [1] is 0.0256 µM. The kcat/KM in series [2] came out at 3.7e+08 M⁻¹ s⁻¹.

B4: FIXa-K247N/N249S/R318Y/T343R/R403E (protein)
chain 1: not shown
chain 2: not shown
As to B4, the kcat in series [1] was 3.7 s⁻¹. For the same protein, the KM in series [2] was 0.105 µM.

B5: FIXa-Y155F/K247N/N249S/R338E/R403E/E410N (protein)
chain 1: not shown
chain 2: not shown
For the protein B5, the KM in series [1] turned out to be 0.0487 µM. In series [2], the specificity constant (kcat/KM) was 1.1e+08 M⁻¹ s⁻¹.

B6: FIXa-K247N/N249S/R338E/T343R/E410N (protein)
chain 1: not shown
chain 2: not shown
For the protein B6, the kcat in series [1] is 7.9 s⁻¹. Further, the KM in series [2] is 0.0275 µM.

B7: FIXa-R318Y/R338E/T343R/R403E (protein)
chain 1: not shown
chain 2: not shown
Regarding B7, in series [1], the KM stood at 0.0443 µM. In series [2], the kcat/KM is 1.6e+08 M⁻¹ s⁻¹.

B8: FIXa-Y155F/K247N/N249S/T343R/R403E/E410N (protein)
chain 1: not shown
chain 2: not shown
For B8, the kcat in series [1] is 15 s⁻¹. In addition, in series [2], the KM is 0.052 µM.

B9: FIXa-R338E/T343R/R403E/E410N (protein)
chain 1: not shown
chain 2: not shown
As for B9, in series [1], the KM turned out to be 0.0347 µM. Further, the kcat/KM in series [2] was 3e+08 M⁻¹ s⁻¹.

B10: FIXa-Y155F/K247N/N249S/R318Y/T343R/E410N (protein)
chain 1: not shown
chain 2: not shown
Turning to B10, in series [1], the kcat stood at 8.1 s⁻¹. For the same protein, the KM in series [2] was determined as 0.0381 µM.

B11: FIXa-K247N/N249S/R338E/R403E/E410N (protein)
chain 1: not shown
chain 2: not shown
Turning to B11, in series [1], the KM was 0.025 µM. Besides, the kcat/KM in series [2] turned out to be 1.9e+08 M⁻¹ s⁻¹.

B12: FIXa-Y155F/K247N/N249S/R338E/T343R/E410N (protein)
chain 1: not shown
chain 2: not shown
Take B12: the kcat in series [1] came to 4.8 s⁻¹. Also, the KM in series [2] was 0.027 µM.

B13: FIXa-Y155F/R318Y/T343R/R403E/E410N (protein)
chain 1: not shown
chain 2: not shown
B13: the KM in series [1] came to 0.034 µM. Besides, the kcat/KM in series [2] turned out to be 2.6e+08 M⁻¹ s⁻¹.

B14: FIXa-Y155F/R318Y/R338E/T343R/R403E (protein)
chain 1: not shown
chain 2: not shown
In the case of B14, the KM in series [1] turned out to be 0.034 µM. Further, the kcat/KM in series [2] was determined as 2.6e+08 M⁻¹ s⁻¹.
